Key:
人TSLP = molecular target: T1, 人TSLP (human, UniProt Q969D9 29-159); test: BLI (ForteBio Blitz)
T1 construct: also called hTSLP; 人胸腺基质淋巴细胞生成素

rhTSLP-hFc [1] = molecular target: rhTSLP-hFc (human); test: competition ELISA: rhTSLP-hFc coated, antibody titrated against 2 μg/ml rhTSLPR-His, anti-His-HRP detection
rhTSLP-mFc融合蛋白 = molecular target: T2, rhTSLP-mFc融合蛋白 (human); test: ELISA: rhTSLP-mFc coated, goat anti-human IgG-HRP detection
T2 construct: Expressed in 293F cells and purified on protein A; also called 人重组TSLP蛋白

rhTSLP-hFc [2] = molecular target: rhTSLP-hFc (human); test: cell-based or functional assay

Row | binding result (rhTSLP-mFc融合蛋白) | Binder | also measured
1 | – | 鼠源TSLP单克隆抗体7A9E3G10E5(6K/3H) (antibody, mouse IgG1, kappa, also called 鼠源单克隆抗体6K/3H) heavy: EVKLVETGAELVRPGALVKLSCKTSGFNIKDYYMHWVKQRPEQGLEWIGWIDPENGNTIYDPKFQGKASITADTSSNTAYLHLSSLTSEDTAVYYCAREGDGNYLWFAYWGQGTLVTVSAAKTTPPSVYPLAPGSAAQTNSMVTLGCLVKGYFPEPVTVTWNSGSLSSGVHTFPAVLESDLYTLSSSVTVPSSPRPSETVTCNVAHPASSTKVDKKIVPRDCGCKPCICTVPEVSSVFIFPPKPKDVLTITLTPKVTCVVVDISKDDPEVQFSWFVDDVEVHTAQTQPREEQFNSTFRSVSELPIMHQDWLNGKEFKCRVNSAAFPAPIEKTISKTKGRPKAPQVYTIPPPKEQMAKDKVSLTCMITDFFPEDITVEWQWNGQPAENYKNTQPIMNTNGSYFVYSKLNVQKSNWEAGNTFTCSVLHEGLHNHHTEKSLSHSPGK light: DILLTQSPSSLSASLGGKVIITCKASQDINKYIAWYQHKPGKGLRLLIHYTSTLEPGIPSRFSGSGSGRDYSFSISNLEPEDIATYYCLHYDNLLTFGDGTKLELKRADAAPTVSIFPPSSEQLTSGGASVVCFLNNFYPKDINVKWKIDGSERQNGVLNSWTDQDSKDSTYSMSSTLTLTKDEYERHNSYTCEATHKTSTSPIVKSFNRNEC | Kd (人TSLP): 20.1 nM; koff (人TSLP): 0.00506 s⁻¹; kon (人TSLP): 252000 M⁻¹ s⁻¹; IC50 (rhTSLP-hFc [1]): 0.428 µg/mL
2 | binds | 人源化单克隆抗体6K1/3H2 (antibody, human IgG1, kappa, V domains shown, Humanized from 6K/3H; expressed in 293F cells) VH: QVQLVQSGAELKKPGASVKISCKASGFNIKDYYMHWVRQRPEQGLEWIGWIDPENGNTIYAQKFQGRATITADTSTDTAYMELSSLTSEDTAVYYCAREGDGNYLWFAYWGQGTLVTVSS VL: DIQMTQSPSSLSASVGGKVTITCKASQDINKYIAWYQQKPGKGPKLLIHYTSTLEPGVPSRFSGSGSGRDFTFSISSLQPEDIATYYCLHYDNLLTFGGGTKVEIKR | –
3 | binds | 人源化单克隆抗体6K2/3H1 (antibody, human IgG1, kappa, V domains shown, Humanized from 6K/3H; expressed in 293F cells) VH: QVKLVQSGAELVKPGASVKLSCKASGFNIKDYYMHWVRQRPGQGLEWIGWIDPENGNTMYAPKFQGRASITADTSTNTAYMQLSSLRSEDTAVYYCAREGDGNYLWFAYWGQGTLVTVSS VL: DIQLTQSPSSLSASVGDKVIITCKASQDINKYIAWYQQKPGKALKLLIHYTSTLETGVPSRFSGSGSGTDYTFSISNLQPEDIATYYCLHYDNLLTFGGGTKVELKR | –
4 | binds | 人源化单克隆抗体6K3/3H3 (antibody, human IgG1, kappa, V domains shown, Humanized from 6K/3H; expressed in 293F cells) VH: EVQLVESGAEVVKPGALVKVSCKASGFNIKDYYMHWVRQRPGQGLEWIGWIDPENGNTIYDQKFQGRVSITADTSTNTAYLELSSLTSEDTAVYYCAREGDGNYLWFAYWGQGTLVTVSS VL: DIQMTQSPSSLSASLGDKVTITCKASQDINKYIAWYQHKPGKAPKLLIHYTSTLEPGVPSRFSGSGSGTDFTFSISSLEPEDIATYYCLHYDNLLTFGGGTKLEIKR | –
5 | binds | 人源化单克隆抗体6K3/3H1 (antibody, human IgG1, kappa, V domains shown, Humanized from 6K/3H; expressed in 293F cells) VH: QVKLVQSGAELVKPGASVKLSCKASGFNIKDYYMHWVRQRPGQGLEWIGWIDPENGNTMYAPKFQGRASITADTSTNTAYMQLSSLRSEDTAVYYCAREGDGNYLWFAYWGQGTLVTVSS VL: DIQMTQSPSSLSASLGDKVTITCKASQDINKYIAWYQHKPGKAPKLLIHYTSTLEPGVPSRFSGSGSGTDFTFSISSLEPEDIATYYCLHYDNLLTFGGGTKLEIKR | –
6 | binds | 人源化单克隆抗体6K2/3H3 (antibody, human IgG1, kappa, V domains shown, Humanized from 6K/3H; expressed in 293F cells) VH: EVQLVESGAEVVKPGALVKVSCKASGFNIKDYYMHWVRQRPGQGLEWIGWIDPENGNTIYDQKFQGRVSITADTSTNTAYLELSSLTSEDTAVYYCAREGDGNYLWFAYWGQGTLVTVSS VL: DIQLTQSPSSLSASVGDKVIITCKASQDINKYIAWYQQKPGKALKLLIHYTSTLETGVPSRFSGSGSGTDYTFSISNLQPEDIATYYCLHYDNLLTFGGGTKVELKR | –
7 | binds | 人源化单克隆抗体6K1/3H1 (antibody, human IgG1, kappa, V domains shown, Humanized from 6K/3H; expressed in 293F cells) VH: QVKLVQSGAELVKPGASVKLSCKASGFNIKDYYMHWVRQRPGQGLEWIGWIDPENGNTMYAPKFQGRASITADTSTNTAYMQLSSLRSEDTAVYYCAREGDGNYLWFAYWGQGTLVTVSS VL: DIQMTQSPSSLSASVGGKVTITCKASQDINKYIAWYQQKPGKGPKLLIHYTSTLEPGVPSRFSGSGSGRDFTFSISSLQPEDIATYYCLHYDNLLTFGGGTKVEIKR | –
8 | binds | 人源化单克隆抗体6K2/3H2 (antibody, human IgG1, kappa, V domains shown, Humanized from 6K/3H; expressed in 293F cells) VH: QVQLVQSGAELKKPGASVKISCKASGFNIKDYYMHWVRQRPEQGLEWIGWIDPENGNTIYAQKFQGRATITADTSTDTAYMELSSLTSEDTAVYYCAREGDGNYLWFAYWGQGTLVTVSS VL: DIQLTQSPSSLSASVGDKVIITCKASQDINKYIAWYQQKPGKALKLLIHYTSTLETGVPSRFSGSGSGTDYTFSISNLQPEDIATYYCLHYDNLLTFGGGTKVELKR | –
9 | binds | 人源化单克隆抗体6K3/3H2 (antibody, human IgG1, kappa, V domains shown, Humanized from 6K/3H; expressed in 293F cells) VH: QVQLVQSGAELKKPGASVKISCKASGFNIKDYYMHWVRQRPEQGLEWIGWIDPENGNTIYAQKFQGRATITADTSTDTAYMELSSLTSEDTAVYYCAREGDGNYLWFAYWGQGTLVTVSS VL: DIQMTQSPSSLSASLGDKVTITCKASQDINKYIAWYQHKPGKAPKLLIHYTSTLEPGVPSRFSGSGSGTDFTFSISSLEPEDIATYYCLHYDNLLTFGGGTKLEIKR | IC50, 抑制TSLP刺激的293F转染细胞STAT5-荧光素酶活性 (rhTSLP-hFc [2]): 0.182 µg/mL
10 | binds | 人源化单克隆抗体6K1/3H3 (antibody, human IgG1, kappa, V domains shown, Humanized from 6K/3H; expressed in 293F cells) VH: EVQLVESGAEVVKPGALVKVSCKASGFNIKDYYMHWVRQRPGQGLEWIGWIDPENGNTIYDQKFQGRVSITADTSTNTAYLELSSLTSEDTAVYYCAREGDGNYLWFAYWGQGTLVTVSS VL: DIQMTQSPSSLSASVGGKVTITCKASQDINKYIAWYQQKPGKGPKLLIHYTSTLEPGVPSRFSGSGSGRDFTFSISSLQPEDIATYYCLHYDNLLTFGGGTKVEIKR | –
11 | – | 人源化单克隆抗体1K3/1H2 (antibody, human IgG1, kappa, V domains shown) VH: EVKLVESGGGLVQPGGSLKLSCAASGFTFSSFGMNWVRQAPGKGLEWVAYISSGSSIIYYADSVKGRFTISRDNPKNSLYLQMNSLRDEDTAVYYCAREPYGYDVYYFDYWGQGTTVTVSS VL: DIVMTQSPASLAVSPGQRATISCKASQSIDYDGDSYMNWYQQKPGQPPKLLIYAASNLDTGIPARFSGSGSGTDFTLTISSVEEEDTATYYCQQSNEDPYTFGGGTKVEIKR | IC50, 抑制TSLP刺激的293F转染细胞STAT5-荧光素酶活性 (rhTSLP-hFc [2]): 3.22 µg/mL
12 | binds | 人源化单克隆抗体1K1/1H1 (antibody, human IgG1, kappa, V domains shown, Humanized from 1K/1H; expressed in 293F cells) VH: EVQLVESGGGLVQPGGSRRLSCAASGFTFSSFGMNWVRQAPEKGLEWVAYISSGSSIIYYADSVKGRFTISRDNAKNSLYLQMTSLRAEDTAVYYCAREPYGYDVYYFDYWGQGTLVTVSS VL: DIVMTQSPASLAVSLGQRATITCKASQSIDYDGDSYMNWYQQKPGQPPKLLIYAASNLDSGVPARFSGSGSGTDFTLTIHPVEPEDFATYYCQQSNEDPYTFGGGTKVEIKR | –
13 | binds | 人源化单克隆抗体1K2/1H3 (antibody, human IgG1, kappa, V domains shown, Humanized from 1K/1H; expressed in 293F cells) VH: EVQLVESGGGLVQPGGSLRLSCAASGFTFSSFGMHWVRQAPGKGLEWVSYISSGSSIIYYADTVKGRFTISRDNAKNSLFLQMNSLRSEDTAVYYCAREPYGYDVYYFDYWGQGTLVTVSS VL: DIVLTQSPASLAVSLGQRATITCKASQSIDYDGDSYLNWYQQKPGQPPKLLIYAASNKDSGVPARFSGSGSGTDFTLTINPVEAEDFAVYYCQQSNEDPYTFGGGTKVEIKR | –
14 | binds | 人源化单克隆抗体1K3/1H3 (antibody, human IgG1, kappa, V domains shown, Humanized from 1K/1H; expressed in 293F cells) VH: EVQLVESGGGLVQPGGSLRLSCAASGFTFSSFGMHWVRQAPGKGLEWVSYISSGSSIIYYADTVKGRFTISRDNAKNSLFLQMNSLRSEDTAVYYCAREPYGYDVYYFDYWGQGTLVTVSS VL: DIVMTQSPASLAVSPGQRATISCKASQSIDYDGDSYMNWYQQKPGQPPKLLIYAASNLDTGIPARFSGSGSGTDFTLTISSVEEEDTATYYCQQSNEDPYTFGGGTKVEIKR | –
15 | binds | 人源化单克隆抗体1K3/1H1 (antibody, human IgG1, kappa, V domains shown, Humanized from 1K/1H; expressed in 293F cells) VH: EVQLVESGGGLVQPGGSRRLSCAASGFTFSSFGMNWVRQAPEKGLEWVAYISSGSSIIYYADSVKGRFTISRDNAKNSLYLQMTSLRAEDTAVYYCAREPYGYDVYYFDYWGQGTLVTVSS VL: DIVMTQSPASLAVSPGQRATISCKASQSIDYDGDSYMNWYQQKPGQPPKLLIYAASNLDTGIPARFSGSGSGTDFTLTISSVEEEDTATYYCQQSNEDPYTFGGGTKVEIKR | –
16 | binds | 人源化单克隆抗体1K2/1H1 (antibody, human IgG1, kappa, V domains shown, Humanized from 1K/1H; expressed in 293F cells) VH: EVQLVESGGGLVQPGGSRRLSCAASGFTFSSFGMNWVRQAPEKGLEWVAYISSGSSIIYYADSVKGRFTISRDNAKNSLYLQMTSLRAEDTAVYYCAREPYGYDVYYFDYWGQGTLVTVSS VL: DIVLTQSPASLAVSLGQRATITCKASQSIDYDGDSYLNWYQQKPGQPPKLLIYAASNKDSGVPARFSGSGSGTDFTLTINPVEAEDFAVYYCQQSNEDPYTFGGGTKVEIKR | –
17 | binds | 人源化单克隆抗体1K1/1H3 (antibody, human IgG1, kappa, V domains shown, Humanized from 1K/1H; expressed in 293F cells) VH: EVQLVESGGGLVQPGGSLRLSCAASGFTFSSFGMHWVRQAPGKGLEWVSYISSGSSIIYYADTVKGRFTISRDNAKNSLFLQMNSLRSEDTAVYYCAREPYGYDVYYFDYWGQGTLVTVSS VL: DIVMTQSPASLAVSLGQRATITCKASQSIDYDGDSYMNWYQQKPGQPPKLLIYAASNLDSGVPARFSGSGSGTDFTLTIHPVEPEDFATYYCQQSNEDPYTFGGGTKVEIKR | –
18 | – | 鼠源TSLP单克隆抗体3A1H2B2E1(1K/1H) (antibody, mouse IgG1, kappa, also called 鼠源单克隆抗体1K/1H) heavy: EVKLVESGGGLVQPGGSRKLSCAASGFTFSSFGMHWVRQAPEKGLEWVAYISSGSSIIHYADTVKGRFTISRDNPKNTLFLQMTSLRSEDTAMYYCAREPYGYDVYYFDYWGQGTTITVSSAKTTPPSVYPLAPGSAAQTNSMVTLGCLVKGYFPEPVTVTWNSGSLSSGVHTFPAVLESDLYTLSSSVTVPSSPRPSETVTCNVAHPASSTKVDKKIVPRDCGCKPCICTVPEVSSVFIFPPKPKDVLTITLTPKVTCVVVDISKDDPEVQFSWFVDDVEVHTAQTQPREEQFNSTFRSVSELPIMHQDWLNGKEFKCRVNSAAFPAPIEKTISKTKGRPKAPQVYTIPPPKEQMAKDKVSLTCMITDFFPEDITVEWQWNGQPAENYKNTQPIMNTNGSYFVYSKLNVQKSNWEAGNTFTCSVLHEGLHNHHTEKSLSHSPGK light: DIVMTQSPASLAVSLGQRATISCKASQSIDYDGDSYMNWYQQKPGQPPKLLIYAASNLDSGIPARFSGSGSGTDFTLNIHPVEEEDAATYYCQQSNEDPYTFGGGTKLEIKRADAAPTVSIFPPSSEQLTSGGASVVCFLNNFYPKDINVKWKIDGSERQNGVLNSWTDQDSKDSTYSMSSTLTLTKDEYERHNSYTCEATHKTSTSPIVKSFNRNEC | Kd (人TSLP): 1.75 nM; koff (人TSLP): 0.000732 s⁻¹; kon (人TSLP): 418000 M⁻¹ s⁻¹; IC50 (rhTSLP-hFc [1]): 0.324 µg/mL
